Source: patent publication US20240287172A1 (SCIRHOM, published 2024)

Columns and labels:
hiR2-FL-F588A-T7 = target: T1, hiR2-FL-F588A-T7 (human, UniProt Q6PJF5 1-856); assay: FACS on MEF-DKO cells expressing the variant, 3 µg/ml antibody
T1 sequence: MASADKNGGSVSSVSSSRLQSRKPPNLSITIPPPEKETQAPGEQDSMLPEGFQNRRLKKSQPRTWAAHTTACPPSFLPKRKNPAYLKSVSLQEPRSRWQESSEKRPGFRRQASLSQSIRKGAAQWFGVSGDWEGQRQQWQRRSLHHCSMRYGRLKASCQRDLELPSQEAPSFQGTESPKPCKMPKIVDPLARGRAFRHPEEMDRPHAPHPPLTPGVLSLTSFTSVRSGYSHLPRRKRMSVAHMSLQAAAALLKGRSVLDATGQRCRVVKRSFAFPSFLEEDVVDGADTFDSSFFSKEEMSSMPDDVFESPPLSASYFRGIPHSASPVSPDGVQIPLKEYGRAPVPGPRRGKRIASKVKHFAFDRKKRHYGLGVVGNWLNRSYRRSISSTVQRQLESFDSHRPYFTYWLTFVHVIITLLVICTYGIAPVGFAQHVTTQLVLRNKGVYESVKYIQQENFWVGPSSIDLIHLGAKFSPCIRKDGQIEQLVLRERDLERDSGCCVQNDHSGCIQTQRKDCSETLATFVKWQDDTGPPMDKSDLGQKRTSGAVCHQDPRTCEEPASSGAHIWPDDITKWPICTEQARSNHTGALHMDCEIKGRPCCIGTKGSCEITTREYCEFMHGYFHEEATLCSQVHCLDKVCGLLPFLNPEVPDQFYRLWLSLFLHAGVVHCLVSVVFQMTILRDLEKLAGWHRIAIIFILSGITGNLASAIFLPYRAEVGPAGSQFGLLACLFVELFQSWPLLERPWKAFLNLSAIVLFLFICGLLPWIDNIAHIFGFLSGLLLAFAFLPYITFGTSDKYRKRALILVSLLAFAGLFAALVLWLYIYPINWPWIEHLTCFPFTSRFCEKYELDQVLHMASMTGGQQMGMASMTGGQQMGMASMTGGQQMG
Outline: (§1)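 Primary stain: antibody 3 μg/ml, 1 h on ice; controls buffer alone. Secondary: PE anti-mouse IgG F(ab′)2 1:100, 1 h on ice, light-protected. Washes at 4° C; read by flow cytometry.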

hiR2-FL-V524A-T7 = target: T2, hiR2-FL-V524A-T7 (human, UniProt Q6PJF5 1-856); assay: as above
T2 sequence: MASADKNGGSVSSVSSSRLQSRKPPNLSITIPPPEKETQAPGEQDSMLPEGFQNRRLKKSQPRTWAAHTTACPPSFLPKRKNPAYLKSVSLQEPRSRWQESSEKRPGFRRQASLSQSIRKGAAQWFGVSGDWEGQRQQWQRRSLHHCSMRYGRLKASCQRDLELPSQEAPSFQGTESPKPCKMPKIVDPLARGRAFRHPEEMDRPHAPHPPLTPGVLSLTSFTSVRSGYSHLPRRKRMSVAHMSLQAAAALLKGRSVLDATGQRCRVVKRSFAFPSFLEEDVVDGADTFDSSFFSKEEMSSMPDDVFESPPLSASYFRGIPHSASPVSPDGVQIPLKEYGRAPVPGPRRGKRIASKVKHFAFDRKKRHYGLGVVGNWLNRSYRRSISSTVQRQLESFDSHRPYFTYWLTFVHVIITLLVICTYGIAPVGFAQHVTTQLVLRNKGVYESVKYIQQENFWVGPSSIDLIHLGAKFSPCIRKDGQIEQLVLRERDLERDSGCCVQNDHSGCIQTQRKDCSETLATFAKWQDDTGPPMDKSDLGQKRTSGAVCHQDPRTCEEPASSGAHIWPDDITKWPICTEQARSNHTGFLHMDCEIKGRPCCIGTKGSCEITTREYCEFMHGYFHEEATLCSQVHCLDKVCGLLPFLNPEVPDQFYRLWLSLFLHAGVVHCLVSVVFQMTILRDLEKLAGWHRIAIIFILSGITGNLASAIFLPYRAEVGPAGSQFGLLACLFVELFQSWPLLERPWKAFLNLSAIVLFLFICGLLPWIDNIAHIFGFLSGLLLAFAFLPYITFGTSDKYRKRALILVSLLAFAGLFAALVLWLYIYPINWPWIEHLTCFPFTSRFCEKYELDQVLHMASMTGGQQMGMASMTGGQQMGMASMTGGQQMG
Outline: as §1

| Binder | loss of binding vs wild type (hiR2-FL-F588A-T7) [%] | loss of binding vs wild type (hiR2-FL-V524A-T7) [%] |
| --- | --- | --- |
| antibody 48 (antibody, V domains shown, mouse IgG, kappa light chain; also called clone #48; purified antibody 48) VH: QVQLQQSGTELVRPGTSVKVSCKASGYAFTNYLIEWVKQRPGQGLEWIGVINPGSGFTKYNEKFKGKATLTADKSSSTVYMHLSSLTSEDSAVYFCARGLYRAMDYWGQGTSVTVSS VL: DIQMTQSPASQSASLGESVTITCLASQTIATWLAWYQQKPGKSPQLLIYGATTLADGVPSRFSGGGSGTKFSFKISSLQAEDFVSYYCQQLYSTPYTFGGGTKLEIK | ≥ 30 |  |
| antibody 50 (antibody, V domains shown, mouse IgG, kappa light chain; also called clone #50; purified antibody 50) VH: QVQLQQSGAELVRPGASVKVSCKASGYAFSNYLIEWVKQRPGQGLEWIGVINPGSGFTKYNEKFKGKATLTADKSSSTAYMQLSSLTSEDSAVYFCARGLYRAMDYWGQGTSVTVSS VL: DIQMTQSPASQSASLGESVTITCLASQTIGTWLAWYQQKPGKSPQLLIYAAASLADGVPSRFSGGGSGTKFSFKISSLQAEDFVNYYCQQIYSTPYTFGGGTKLEIK |  | ≥ 30 |
